Results: US20100055103A1 (Genentech, published 2010)
Substitutions are numbered along the chain they refer to.

What was measured:
[1] = molecular target: T1, Recombinant human IL-17A/F heterodimer (human, UniProt Q16552 24-155; Q96PD4 31-163); test: screening of cross-reactive clones; assay not given
T1 construct: also called IL-17A/F (GNE)

[2] = molecular target: T2, Human IL-17F (R&D Systems, cat #1335-IL-025/CF) (human, UniProt Q96PD4 31-163); test: as above
T2 construct: That entry is derived from the native cDNA and may include the signal peptide; also called rhIL-17F; recombinant human IL-17F
T2 sequence: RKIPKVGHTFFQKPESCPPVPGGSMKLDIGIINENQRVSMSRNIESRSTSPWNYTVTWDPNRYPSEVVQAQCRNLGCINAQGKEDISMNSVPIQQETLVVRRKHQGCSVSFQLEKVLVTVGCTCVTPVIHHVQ

[3] = molecular target: T3, Human IL-17F dimer (baculovirus/Hi5-expressed, His-tag removed by thrombin) (human, UniProt Q96PD4 31-163, limits assumed); test: X-ray crystal structure, content of the asymmetric unit
T3 construct: The N-terminal His-tag and thrombin site were introduced and then cleaved off; also called purified recombinant IL17F
T3 sequence: T2 sequence

[4] = molecular target: T2, Human IL-17F (R&D Systems, cat …); test: BIAcore SPR, IgG captured by anti-human Fc

T1 sequence (Q16552 24-155 limits assumed, one chain of several): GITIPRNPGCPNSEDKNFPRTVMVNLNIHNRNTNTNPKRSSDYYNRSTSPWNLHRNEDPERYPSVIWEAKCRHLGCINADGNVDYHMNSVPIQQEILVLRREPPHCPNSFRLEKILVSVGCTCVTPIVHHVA

B1: YW278.15 (antibody, V domains shown)
VH: EVQLVESGGGLVQPGGSLRLSCAASGFTFTDYDISWVRQAPGKGLEWVASISPSDGYTYYADSVKGRFTISADTSKNTAYLQMNSLRAEDTAVYYCARYLYWSYVMDYWGQGTLVTVSS
VL: DIQMTQSPSSLSASVGDRVTITCRASQDVSTAVAWYQQKPGKAPKLLIYSASFLYSGVPSRFSGSGSGTDFTLTISSLQPEDFATYYCQQSYTTPPTFGQGTKVEIKR
**Q.** Does B1 bind [1]?
**A.** binds

**Q.** Does B1 bind [2]?
**A.** binds

B2: Fab fragment of YW 278.15.18.C55S (Fab, V domains shown)
VH: B1 VH with S54P, G56S
VL: B1 VL with T94A, P95K, P96L
notes: also called YW278.15.18C55S Fab
**Q.** Does B2 bind [3]?
**A.** binds

B3: YW278.15.2 (antibody, V domains shown)
VH: B1 VH with T28S, T30I, S54Y
VL: B1 VL with S91Y, T93I, T94Y, P96A
**Q.** Does B3 bind [4]?
**A.** binds

B4: YW278.15.18 (antibody, V domains shown)
VH: B1 VH with S54P, G56C
VL: B1 VL with T94A, P95K, P96L
**Q.** Does B4 bind [4]?
**A.** binds
